Source: the nanobody polyreactivity screen of Harvey et al. (2022)

Test: yeast display, Sf9 membrane polyspecificity reagent, FACS + sequencing; frameworks hold sequencing errors
Outline: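 In a synthetic yeast display library (Saccharomyces cerevisiae BJ5465), nanobody expression was induced with galactose for 36–48 hours. FACS gates were set low and high (top ~1%) using anti-HA fluorescence for expression and streptavidin fluorescence for binding of the Sf9 membrane reagent. Each polyreactivity label is drawn from the gate of origin.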
With “QVQLVESGGGLVQAGGSLRLSCAASGSIFSSYSMGWYRQAPGKERELVAAIDGSGGSTYADSVKGRFTISRDNAKNTVYLQMNSLKPEDTAVYYCAVDSFLVYSAVRPYDYWGHGTQVTVSS” the “polyreactivity (PSR sort gate)” value was “low polyreactivity”. For “QVQLVESGGGLVQAGGSLRLSCAASGSIFSTNAMGCYIQAPGKERELVAVITGIGGITYYADSVKGRFTISRDNAKNTVYVQMNSLKPEDTAVYYCAADPISEFYWGVKDRYDYWGQGTQVTVST”, the “polyreactivity (PSR sort gate)” value was “low polyreactivity”. With “QVQLVESGGGLVQAGGSLRLSCAASGSIFSTNAMGWYRQAPGKERELVATISGADGTNYADSVKGRFTISRDNAKNTVYLQMNSLKPEDTAVYYSNAFPWPVYRGYYWGQGTQVTVSS” the “polyreactivity (PSR sort gate)” value was “low polyreactivity”. For “QVQLVESGGGLVQAGGSLRLSCAASGSIFSTNAMGWYRQAPWKERELVAGISSDDSTYADSVKGRFTISRDNAKNTVNLQMNSLKPEDTAVYNCAAEDNWYNVGYYYRGQGTQVTVSS”, the “polyreactivity (PSR sort gate)” value was “low polyreactivity”. For “QVQLVESGGGLVQAGGSLRLSCAASGSIFSTNGMGWYRQAPGKERELVAAISTGGRTYYADSVKGRFTISRDNAKNTVYLQMNSLKPEDTAVYYCAKRFGYRSTQILDYWGQGTQVTVSS”, the “polyreactivity (PSR sort gate)” value was “low polyreactivity”. For “QVQLVESGGGLVQAGGSLRLSCAASGSIFSTYAMGWYRQAPGKERELVAAISKSGGSTYYADSVKGRFTISRDNAKNTVYLQMNSLKPEDTAVYYCAATRWYGYKRWGYDYWGQGTQVTVSS”, the “polyreactivity (PSR sort gate)” value was “high polyreactivity”. In the case of “QVQLVESGGGLVQAGGSLRLSCAASGSIFSTYAMGWYRQAPGKERELVAAISQGGSSTYYADSVKGRFTISRDNAKNTVYLQMNSLKPEDTAVYYCATPYSWYHRVYGYDYWGQGTQVTVSS”, the “polyreactivity (PSR sort gate)” value is reported as “high polyreactivity”. For “QVQLVESGGGLVQAGGSLRLSCAASGSIFSVYAMGWYRQAPGKERELVASITSGGRTKYADSVKGRFTISRDNAKNTVYLQMNSLKQEDTAVYYCAKDGGGLLRWYTDEYDYWGQGTQVTVSS”, the “polyreactivity (PSR sort gate)” value was “low polyreactivity”. For “QVQLVESGGGLVQAGGSLRLSCAASGSIFSVYAMGWYRQAPGKERELVATISGSAGRTYYADSVKGRFTISRDNAKNTVYLQMNSLKPEDTAVYYCAARWYKEYYWGQRTQVTVSS”, the “polyreactivity (PSR sort gate)” value was “high polyreactivity”. In the case of “QVQLVESGGGLVQAGGSLRLSCAASGSIFSVYARGSYRQAPGKERELVAGITRGGSTYADSVKGRFTISRDNAKNPVYLQMNSLKPEDTAVYYCNAQTRIVKDRLRSDYWGQGTQVTVSS”, the “polyreactivity (PSR sort gate)” value is reported as “high polyreactivity”. For “QVQLVESGGGLVQAGGSLRLSCAASGSIFSWYAMGWYRQAPGKERELVATITWRGGSTYYADSVKGRFTISRDNAKNTVYLQMNSLKPEDTAVYYCAARVPDPYTSYRYPPYYYWGQGTQVTVSS”, the “polyreactivity (PSR sort gate)” value was “low polyreactivity”. With “QVQLVESGGGLVQAGGSLRLSCAASGSIFSYAMGWYRQAPGKERELVAAISRRGGRTYYADSVKGRFTISRDNEKYTVYLQMNSLKPEDTAVYYCAASGRNRKDGLYEYYYWGQGTQVTVSS” the “polyreactivity (PSR sort gate)” value was “high polyreactivity”. With “QVQLVESGGGLVQAGGSLRLSCAASGSIFSYNAMGWYRQAPGKERELFAAITWSGGSTYYADSVKGRFTISRDNAKNTVYLQMNSLKPEDTAVYYCAAKGGYSTGRPTYTKFNYWGQGTQVTVSS” the “polyreactivity (PSR sort gate)” value was “high polyreactivity”. For “QVQLVESGGGLVQAGGSLRLSCAASGSIFSYNAMGWYRQAPGKERELVAAINNGGSTYYADSVKGRFTISRDNAKNTVYLQMNSLKPEDTAVYYCNTARRHCQTQGGDYWGQGTQVTVSS”, the “polyreactivity (PSR sort gate)” value was “high polyreactivity”. With “QVQLVESGGGLVQAGGSLRLSCAASGSIFSYNLMGWYRQAPGKERELVAAITRSCGSTYYADSVKGRFTISRDNAKNTVYLQMNSLKQEDTAVYYCAVGWADQDPFIMDFWGQGTQVTVSS” the “polyreactivity (PSR sort gate)” value was “low polyreactivity”. For “QVQLVESGGGLVQAGGSLRLSCAASGSIFSYNVMGGYRQAPGKERELVAVITGSGGSTYYADSVKGRFTISRDNAKNTVYLQMNSLKPEDTAVYYCNKDRGTIPPSGNDYWGQGTLVTVSS”, the “polyreactivity (PSR sort gate)” value was “low polyreactivity”. In the case of “QVQLVESGGGLVQAGGSLRLSCAASGSIFSYYAMGWYRQAPGKERELVAAISLSTSGTHYADSVKGRFTISRDNAKNTVYLQMNSLKPEDTAVYYCAARQGYPVFLYNSRYGYWGQGTQVTVSS”, the “polyreactivity (PSR sort gate)” value is reported as “low polyreactivity”. With “QVQLVESGGGLVQAGGSLRLSCAASGSIFSYYAMGWYRQAPGKERELVAAISQNGGSTYYADSVKGRFTISRDNAKNTVYLQMNSLKPEDTAVYYCNAYSVYVRGEYWGQGTQVTVSS” the “polyreactivity (PSR sort gate)” value was “high polyreactivity”. In the case of “QVQLVESGGGLVQAGGSLRLSCAASGSIFSYYAMGWYRQAPGKERELVAAISQNGGSTYYADSVKGRFTNSRDNAKNSVSFQMNRLKAEETAVYYCYAYSVYVRGEYWGQGTQVTVSS”, the “polyreactivity (PSR sort gate)” value is reported as “high polyreactivity”. In the case of “QVQLVESGGGLVQAGGSLRLSCAASGSIFSYYAMGWYRQAPGKERELVAAISRSGASTSYADSVKGRFTISRDNAKNTVYLQMNSLKPEDTAVYYCAKRIYWRGSWGRYYYWGQGTQVTVSS”, the “polyreactivity (PSR sort gate)” value is reported as “high polyreactivity”. For “QVQLVESGGGLVQAGGSLRLSCAASGSIFSYYAMGWYRQAPGKERELVAAITWSGTRTYYADSVKGRFTISRDNAKNTVYLQMNSLKPEDTAVSYCAADSSIRDAYWGQGTQVTVSS”, the “polyreactivity (PSR sort gate)” value was “low polyreactivity”. In the case of “QVQLVESGGGLVQAGGSLRLSCAASGSIFSYYAMGWYRQAPGKERELVADISFTGDSTYYADSVKGRFTISRDNAKNTVYLQMNSLKPEDTAVYYCAKDEIIAVYFEYDYWGQGTQVTVSS”, the “polyreactivity (PSR sort gate)” value is reported as “low polyreactivity”. With “QVQLVESGGGLVQAGGSLRLSCAASGSIFSYYAMGWYRQAPGKERELVASISWNGTSTYYADSVKGRFTISRDNAKNTVYLQMNSLKPEDTAVYYCNAVLSGWGYFYGLNYWGQGTQVTVSS” the “polyreactivity (PSR sort gate)” value was “low polyreactivity”. With “QVQLVESGGGLVQAGGSLRLSCAASGSIFSYYDMGWYRQAPGKERELVADISSTGGSTYYADSVKGRFTISRDNAKNTVSIQMNSLKPEDTAVYYCAAEIGYWGQGTQVTVSS” the “polyreactivity (PSR sort gate)” value was “high polyreactivity”. In the case of “QVQLVESGGGLVQAGGSLRLSCAASGSIFSYYSMGWYRQAPGKERELVAAITSGDGTNYADSVKGRFTISRDYAKNTVYLQMNSLKPEDTAVYYCAADAVDSYWREDYWGQGTQVTVSS”, the “polyreactivity (PSR sort gate)” value is reported as “low polyreactivity”. For “QVQLVESGGGLVQAGGSLRLSCAASGSIFSYYVMGWYRQAPGKERELVAAISWSGGSTYYADSVKGRFTISRDNAKNTVYLQMNSLKPEDTAVYYCAAGTYPYYWGQGTQVTVSS”, the “polyreactivity (PSR sort gate)” value was “low polyreactivity”. For “QVQLVESGGGLVQAGGSLRLSCAASGSIFSYYVMGWYRQAPGKERELVAAISYSGGRTYYADSVKGRFTISRDNAKNTVYLQMNSLKPEDTAVYYCAASRRVGEVSYYYWGQGTQVTVSS”, the “polyreactivity (PSR sort gate)” value was “high polyreactivity”. For “QVQLVESGGGLVQAGGSLRLSCAASGSIFSYYVMGWYRQAPGKERELVAAITRSGGSTYYADSVKGRFTISRDNAKNTVYLQMNSLKPEDTAVYDCNALWRVRGDYWGQGTQVTVSS”, the “polyreactivity (PSR sort gate)” value was “high polyreactivity”. In the case of “QVQLVESGGGLVQAGGSLRLSCAASGSIFTCNAMGWYRQAPGKERELVAAISYISGGTYYADSVKGRFTISRDNAKNTVYLQMNSLKPEDTAVYYCAAVVYYYTYHYWGQGTQGTVSS”, the “polyreactivity (PSR sort gate)” value is reported as “low polyreactivity”. For “QVQLVESGGGLVQAGGSLRLSCAASGSIFTFNAMGWYRQAPGKEREFVAAITRSGGRTYYADSVKGRFTISRDNAKNTVYLQMNSLKPEDTAVYYCAARPRGKYDYWGQGTQVTVSS”, the “polyreactivity (PSR sort gate)” value was “high polyreactivity”.
